Reference: PMC9076019, “HSP90 N‐terminal inhibitors target oncoprotein MORC2 for autophagic degradation and suppress MORC2‐driven breast cancer progression” (Clinical and Translational Medicine, 2022)

Key:
[1] = target: the molecule itself; test: cross-linking; nuclear fraction of HEK293T cells transfected with Flag-MORC2 (48 h); chemical cross-linking with 0.05% glutaraldehyde on ice for 5 min; immunoblotting
[2] = target: the molecule itself; test: cross-linking; endogenous MORC2; total lysates (NP40 buffer) of MCF-7 and T47D cells treated with DMSO, 1 μM 17-AAG, AUY922, STA-9090 or 10 μM NB for 12 h; 0.05% glutaraldehyde on ice for 5 min; immunoblotting

B1: Full-length Flag-MORC2 (natural protein, human, UniProt Q9Y6X9-1 1-1032, looked up)
chain: MAFTNYSSLNRAQLTFEYLHTNSTTHEFLFGALAELVDNARDADATRIDIYAERREDLRGGFMLCFLDDGAGMDPSDAASVIQFGKSAKRTPESTQIGQYGNGLKSGSMRIGKDFILFTKKEDTMTCLFLSRTFHEEEGIDEVIVPLPTWNARTREPVTDNVEKFAIETELIYKYSPFRTEEEVMTQFMKIPGDSGTLVIIFNLKLMDNGEPELDIISNPRDIQMAETSPEGTKPERRSFRAYAAVLYIDPRMRIFIHGHKVQTKRLSCCLYKPRMYKYTSSRFKTRAEQEVKKAEHVARIAEEKAREAESKARTLEVRLGGDLTRDSRVMLRQVQNRAITLRREADVKKRIKEAKQRALKEPKELNFVFGVNIEHRDLDGMFIYNCSRLIKMYEKVGPQLEGGMACGGVVGVVDVPYLVLEPTHNKQDFADAKEYRHLLRAMGEHLAQYWKDIAIAQRGIIKFWDEFGYLSANWNQPPSSELRYKRRRAMEIPTTIQCDLCLKWRTLPFQLSSVEKDYPDTWVCSMNPDPEQDRCEASEQKQKVPLGTFRKDMKTQEEKQKQLTEKIRQQQEKLEALQKTTPIRSQADLKKLPLEVTTRPSTEEPVRRPQRPRSPPLPAVIRNAPSRPPSLPTPRPASQPRKAPVISSTPKLPALAAREEASTSRLLQPPEAPRKPANTLVKTASRPAPLVQQLSPSLLPNSKSPREVPSPKVIKTPVVKKTESPIKLSPATPSRKRSVAVSDEEEVEEEAERRKERCKRGRFVVKEEKKDSNELSDSAGEEDSADLKRAQKDKGLHVEVRVNREWYTGRVTAVEVGKHVVRWKVKFDYVPTDTTPRDRWVEKGSEDVRLMKPPSPEHQSLDTQQEGGEEEVGPVAQQAIAVAEPSTSECLRIEPDTTALSTNHETIDLLVQILRNCLRYFLPPSFPISKKQLSAMNSDELISFPLKEYFKQYEVGLQNLCNSYQSRADSRAKASEESLRTSERKLRETEEKLQKLRTNIVALLQKVQEDIDINTDDELDAYIEDLITKGD
notes: MORC2, human, full length (residues 1-1032); source: HEK293T, transfected, in cytosolic and nuclear fractions
With B1 the “stoichiometry N” value [1] was 2.

B2: MORC family CW-type zinc finger 2 (MORC2) (natural protein, human (endogenous in MCF-7 and T47D), UniProt Q9Y6X9 1-1032, looked up)
chain: MAFTNYSSLNRAQLTFEYLHTNSTTHEFLFGALAELVDNARDADATRIDIYAERREDLRGGFMLCFLDDGAGMDPSDAASVIQFGKSAKRTPESTQIGQYGNGLKSGSMRIGKDFILFTKKEDTMTCLFLSRTFHEEEGIDEVIVPLPTWNARTREPVTDNVEKFAIETELIYKYSPFRTEEEVMTQFMKIPGDSGTLVIIFNLKLMDNGEPELDIISNPRDIQMAETSPEGTKPERRSFRAYAAVLYIDPRMRIFIHGHKVQTKRLSCCLYKPRMYKYTSSRFKTRAEQEVKKAEHVARIAEEKAREAESKARTLEVRLGGDLTRDSRVMLRQVQNRAITLRREADVKKRIKEAKQRALKEPKELNFVFGVNIEHRDLDGMFIYNCSRLIKMYEKVGPQLEGGMACGGVVGVVDVPYLVLEPTHNKQDFADAKEYRHLLRAMGEHLAQYWKDIAIAQRGIIKFWDEFGYLSANWNQPPSSELRYKRRRAMEIPTTIQCDLCLKWRTLPFQLSSVEKDYPDTWVCSMNPDPEQDRCEASEQKQKVPLGTFRKDMKTQEEKQKQLTEKIRQQQEKLEALQKTTPIRSQADLKKLPLEVTTRPSTEEPVRRPQRPRSPPLPAVIRNAPSRPPSLPTPRPASQPRKAPVISSTPKLPALAAREEASTSRLLQPPEAPRKPANTLVKTASRPAPLVQQLSPSLLPNSKSPREVPSPKVIKTPVVKKTESPIKLSPATPSRKRSVAVSDEEEVEEEAERRKERCKRGRFVVKEEKKDSNELSDSAGEEDSADLKRAQKDKGLHVEVRVNREWYTGRVTAVEVGKHVVRWKVKFDYVPTDTTPRDRWVEKGSEDVRLMKPPSPEHQSLDTQQEGGEEEVGPVAQQAIAVAEPSTSECLRIEPDTTALSTNHETIDLLVQILRNCLRYFLPPSFPISKKQLSAMNSDELISFPLKEYFKQYEVGLQNLCNSYQSRADSRAKASEESLRTSERKLRETEEKLQKLRTNIVALLQKVQEDIDINTDDELDAYIEDLITKGD
notes: MORC2, human, endogenous in breast cancer cells; source: endogenous, MCF-7 and T47D lysates
B2 was tested, and the “stoichiometry N” value [2] was 2.
